Data from patent US20080058263A1 (published 2008).
Where a chain is given by its changes, count along the chain named.

T1: VEGFR-3-Fc (UniProt P35916 25-328)
T1 construct: domain: first three Ig domains; conditioned supernatant of 293T cells; also called VEGFR-3-Fc fusion protein; not shown: Fc fragment of the pIg vector
T1 sequence (looked up): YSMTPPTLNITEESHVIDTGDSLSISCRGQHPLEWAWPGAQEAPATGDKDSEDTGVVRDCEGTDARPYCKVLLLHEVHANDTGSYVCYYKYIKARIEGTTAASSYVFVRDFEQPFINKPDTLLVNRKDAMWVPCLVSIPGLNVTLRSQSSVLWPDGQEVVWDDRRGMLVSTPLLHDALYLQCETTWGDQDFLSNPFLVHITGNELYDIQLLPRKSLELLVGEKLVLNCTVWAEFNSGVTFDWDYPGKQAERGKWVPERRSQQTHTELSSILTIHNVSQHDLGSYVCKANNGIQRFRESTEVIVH

B1: 23-13 (ligand)
chain: AHYNTEILKSIDNEWRKTQCMPREVCIDVGKEYPDEIEYIFKPPCVSVYRCGGCCNDEGLECVPTEESNITMQIMRITVPLSQGPKPVTISFANHTSCRCMSKLD
B2: 23-15 (ligand)
chain: B1 chain with D57S, E61Q
B3: 21-1 (ligand)
chain: AHYNTEILKSIDNEWRKTQCMPREVCIDVGKEYPDEIEYIFKPSCVPLMRCGGCCNDEGLECVPTEESNITMQIMRIKPHQGQHIGEMSFLQHNKCECRPKKD
B4: 33-14 (ligand)
chain: GQNHHEVVKSIDNEWRKTQCMPIETLVDIFQEYPDEIEYIFKPPCVSVYRCGGCCNDEGLECMNTSTSYLSKTLFEITVPLSQGPKPVTISFANHTSCRCMSKLD
B5: 33-16 (ligand)
chain: B4 chain with D57S, E61Q
B6: 33-5 (ligand)
chain: GQNHHEVVKSIDNEWRKTQCMPIETLVDIFQEYPDEIEYIFKPPCVSVYRCGGCCNDEGLECVPTEESNITMQIMRIKPHQGQHIGEMSFANHTSCRCMSKLD
B7: 33-7 (ligand)
chain: B6 chain with D57S, E61Q
B8: 33-2 (ligand)
chain: GQNHHEVVKSIDNEWRKTQCMPIETLVDIFQEYPDEIEYIFKPPCVSVYRCGGCCNDEGLECMNTSTSYLSKTLFEIKPHQGQHIGEMSFLQHNKCECRPKKD
B9: 33-8 (ligand)
chain: B8 chain with D57S, E61Q, L91A, Q92N, N94T, K95S, E97R, R99M, P100S, K102L
B10: 33-4 (ligand)
chain: B8 chain with D57S, E61Q
B11: 33-6 (ligand)
chain: B8 chain with L91A, Q92N, N94T, K95S, E97R, R99M, P100S, K102L
B12: 34-14 (ligand)
chain: GQNHHEVVKSIDNEWRKTQCMPIETLVDIFQEFGVATNTFFKPSCVPLMRCGGCCNDEGLECMNTSTSYLSKTLFEITVPLSQGPKPVTISFANHTSCRCMSKLD
B13: 34-11 (ligand)
chain: GQNHHEVVKSIDNEWRKTQCMPIETLVDIFQEFGVATNTFFKPSCVPLMRCGGCCNSEGLQCVPTEESNITMQIMRITVPLSQGPKPVTISFLQHNKCECRPKKD
B14: 34-13 (ligand)
chain: B13 chain with S57D, Q61E, L93A, Q94N, N96T, K97S, E99R, R101M, P102S, K104L
B15: 34-1 (ligand)
chain: GQNHHEVVKSIDNEWRKTQCMPIETLVDIFQEFGVATNTFFKPSCVPLMRCGGCCNDEGLECVPTEESNITMQIMRIKPHQGQHIGEMSFLQHNKCECRPKKD
B16: 34-5 (ligand)
chain: B15 chain with L91A, Q92N, N94T, K95S, E97R, R99M, P100S, K102L
B17: 34-7 (ligand)
chain: B15 chain with D57S, E61Q, L91A, Q92N, N94T, K95S, E97R, R99M, P100S, K102L
B18: 34-3 (ligand)
chain: B15 chain with D57S, E61Q
B19: 33-13 (ligand)
chain: GQNHHEVVKSIDNEWRKTQCMPIETLVDIFQEYPDEIEYIFKPPCVSVYRCGGCCNDEGLECVPTEESNITMQIMRITVPLSQGPKPVTISFANHTSCRCMSKLD
B20: 33-15 (ligand)
chain: B19 chain with D57S, E61Q

The binders below were run against T2, VEGFR-2-Fc (UniProt P35968 20-322) (assay: receptor-Fc IP).
T2 construct: domain: first 3 Ig domains; conditioned supernatant of 293T cells; also called VEGFR-2-Fc fusion protein; not shown: Fc fragment of the pIg vector
T2 sequence (P35968 20-322): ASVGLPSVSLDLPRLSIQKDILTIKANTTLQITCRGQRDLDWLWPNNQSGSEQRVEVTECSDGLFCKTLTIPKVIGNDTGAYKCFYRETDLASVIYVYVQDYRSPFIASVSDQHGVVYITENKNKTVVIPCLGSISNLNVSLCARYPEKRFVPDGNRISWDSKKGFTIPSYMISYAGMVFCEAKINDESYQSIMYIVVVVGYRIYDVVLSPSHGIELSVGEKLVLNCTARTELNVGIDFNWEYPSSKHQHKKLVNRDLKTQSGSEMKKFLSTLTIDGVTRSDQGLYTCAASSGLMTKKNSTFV
In short: (§1)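 fusion protein at 400 ng/ml in an IP mix (PBS, 1.5% BSA, 0.06% Tween 20, 3 μg/ml heparin) was combined with sample supernatant at a 1:2 ratio. Bound ligand captured by immunoprecipitation with pentahistidine antibody.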

Binding result, no binding:
B1, B2, B3, B4, B5, B6, B7, B8, B9, B10, B11, B12, B13, B14, B15, B16, B17, B18, B19, B20

What follows are binders tested against T3, VEGFR-1-Fc (UniProt P17948 27-338) (assay: receptor-Fc IP).
T3 construct: domain: first three Ig domains; expressed in Drosophila S2 cells, purified on Protein A sepharose; also called VEGFR-1-Fc fusion protein; not shown: Fc fragment from the Signal-pIgPlus vector
T3 sequence (P17948 27-338): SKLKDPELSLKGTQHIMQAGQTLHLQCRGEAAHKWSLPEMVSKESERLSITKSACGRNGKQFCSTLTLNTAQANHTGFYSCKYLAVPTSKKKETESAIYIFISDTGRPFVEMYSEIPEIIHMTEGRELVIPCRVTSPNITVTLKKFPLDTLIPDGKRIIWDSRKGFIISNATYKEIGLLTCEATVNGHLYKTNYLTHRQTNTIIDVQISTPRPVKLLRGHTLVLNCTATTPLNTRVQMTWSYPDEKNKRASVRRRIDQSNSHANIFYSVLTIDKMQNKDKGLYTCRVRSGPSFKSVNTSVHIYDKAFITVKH
In short: as §1

Binding result, no binding:
B1, B2, B3, B4, B5, B6, B7, B8, B9, B10, B11, B12, B13, B14, B15, B16, B17, B18, B19, B20

What follows are binders tested against T1, VEGFR-3-Fc (assay: receptor-Fc IP).
In short: as §1

Binding result, no binding:
B1, B2, B3, B4, B5, B6, B7, B8, B9, B10, B11, B12, B13, B14, B15, B16, B17, B18, B19, B20
